Where two headings read alike, the source gives them in different places.
Key:
[1] = target: T1, Cyno LILRB5 (Macaca fascicularis, UniProt A0A2K5VIP6); assay: FACS on cells expressing cyno LILRB5, labeled anti-mouse Fc secondary antibody
T1 construct: expressed on the cell surface; also called cynomolgus LILRB5
Description: (§1) ELISA assays were used to screen antibodies against human ILT3 and human LILRA1,2,4-6. […] These antibodies were rescreened by FACS for binding to human ILT3 and cyno ILT3 expressed on HEK-293T cells. The antibodies that bound to both human and cyno ILT3 were selected. This subset of antibodies were screened by FACS against human LILRB1-5 (ILT2, ILT4, ILT5, ILT3, and LILRB5, respectively), cyno LILRB5, and human LILRA1,2,4-6. For FACS screening, each antibody was incubated with cells expressing human ILT3, cyno ILT3, one of the LILRA proteins, or one of the LILRB proteins for 30 minutes at 4° C. After washing, the cells were incubated with labeled anti-mouse Fc antibody for 30 minutes at 4° C. After washing, cells were analyzed on a flow cytometer. Antibodies were selected on the criteria of binding to human ILT3, cyno ILT3, no or limited binding to other LILRB proteins, and no or limited binding to LILRA proteins.

[2] = target: T2, human LILRB2 (human, UniProt Q8N423 22-597); assay: FACS on cells expressing human LILRB2, labeled anti-mouse Fc secondary antibody
T2 construct: whole, on cells; also called ILT4
Description: as §1

[3] = target: T3, LILRB3 (human, UniProt O75022); assay: FACS on cells expressing human LILRB3, labeled anti-mouse Fc secondary antibody
T3 construct: expressed on the cell surface; also called human LILRB3; ILT5
Description: as §1

[4] = target: T4, LILRB5 (human, UniProt O75023); assay: FACS on cells expressing human LILRB5, labeled anti-mouse Fc secondary antibody
T4 construct: expressed on the cell surface; also called human LILRB5; CD85C
Description: as §1

[5] = target: T5, human LILRA1 (human, UniProt O75019 17-489); assay: FACS on cells expressing human LILRA1, labeled anti-mouse Fc secondary antibody
T5 construct: whole, on cells
Description: as §1

[6] = target: T6, human LILRA2 (human, UniProt Q8N149 24-483); assay: FACS on cells expressing human LILRA2, labeled anti-mouse Fc secondary antibody
T6 construct: whole, on cells
Description: as §1

[7] = target: T7, human LILRA4 (human, UniProt P59901 24-499); assay: FACS on cells expressing human LILRA4, labeled anti-mouse Fc secondary antibody
T7 construct: whole, on cells
Description: as §1

[8] = target: T8, human LILRA5 (human, UniProt A6NI73 42-299); assay: FACS on cells expressing human LILRA5, labeled anti-mouse Fc secondary antibody
T8 construct: whole, on cells
Description: as §1

[9] = target: T9, human LILRA6 (human, UniProt Q6PI73 24-447, limits assumed); assay: FACS on cells expressing human LILRA6, labeled anti-mouse Fc secondary antibody
T9 construct: Read out of the printed 'LILRA1,2,4-6'
Description: as §1

[10] = target: T10, extracellular domain of human ILT3 (huILT3-ECD) (human, UniProt Q8NHJ6 22-259); assay: SPR (Biacore), antibody captured via anti-Fc on CM5 chip, soluble ILT3-ECD injected, 37 C
T10 construct: also called human ILT3-ECD
Description: (§2) The binding affinities of anti-ILT3 antibodies to human ILT3 and cyno ILT3 were measured using a Biacore system (GE Healthcare LifeSciences). Briefly, anti-Fc antibody (Sigma-Aldrich) was immobilized on all four flow cells of a CM5 chip using amine coupling reagents (GE Healthcare LifeSciences). Antibodies were captured on flow cells 2, 3, and 4 using flow cell 1 as a reference. Concentrations ranging from 3.3-10 nM of human or cyno ILT3-ECD were injected at a flow rate of 50 μL/min at 37° C. Kinetic data were collected over time and fit using the simultaneous global fit equation to yield affinity constants (KD values) for each antibody.

[11] = target: T11, extracellular domain of cyno ILT3 (cynoILT3-ECD) (cynomolgus monkey); assay: as above
T11 chain: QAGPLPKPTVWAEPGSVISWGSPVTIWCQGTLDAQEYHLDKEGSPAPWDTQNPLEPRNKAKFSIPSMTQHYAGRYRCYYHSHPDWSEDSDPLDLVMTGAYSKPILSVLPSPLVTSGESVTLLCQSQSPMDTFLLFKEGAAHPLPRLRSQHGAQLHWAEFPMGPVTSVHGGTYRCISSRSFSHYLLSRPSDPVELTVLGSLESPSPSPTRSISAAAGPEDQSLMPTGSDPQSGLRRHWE
Description: as §2

[12] = target: T12, LILRB4; assay: FACS on cells expressing human LILRB4 (ILT3), labeled anti-mouse Fc secondary antibody
T12 construct: the construct expressed on the cells is not described further; also called human ILT3 expressed on cells for the FACS screen; ILT3
Description: as §1

[13] = target: ILT3 extracellular domain chimeric receptor on NFAT-GFP reporter cells (human); assay: cell-based or functional assay
[14] = target: T10, extracellular domain of human ILT3 …; assay: SPR (Biacore), antibody captured via anti-Fc on CM5 chip, soluble ILT3-ECD injected, 37 C; remark: listed apart in the source
Description: as §2
(§3) The binding affinity of Hz5A7.v5 to human ILT3 and cyno ILT3 was determined using a Biacore system as described herein and compared with the binding affinity of the parental chimeric 5A7 (ch5A7) antibody and humanized 5A7 without any CDR modifications (Hz5A7.v1) (see Table 12).

[15] = target: T11, extracellular domain of cyno ILT3 …; assay: as above
Description: as §2, §3

[16] = target: T13, cynomolgus ILT3 expressed on cells (THP-1 reporter cells transduced with cyno ILT3); cyno monocyte-derived … (cynomolgus monkey); assay: cell-based or functional assay
T13 chain: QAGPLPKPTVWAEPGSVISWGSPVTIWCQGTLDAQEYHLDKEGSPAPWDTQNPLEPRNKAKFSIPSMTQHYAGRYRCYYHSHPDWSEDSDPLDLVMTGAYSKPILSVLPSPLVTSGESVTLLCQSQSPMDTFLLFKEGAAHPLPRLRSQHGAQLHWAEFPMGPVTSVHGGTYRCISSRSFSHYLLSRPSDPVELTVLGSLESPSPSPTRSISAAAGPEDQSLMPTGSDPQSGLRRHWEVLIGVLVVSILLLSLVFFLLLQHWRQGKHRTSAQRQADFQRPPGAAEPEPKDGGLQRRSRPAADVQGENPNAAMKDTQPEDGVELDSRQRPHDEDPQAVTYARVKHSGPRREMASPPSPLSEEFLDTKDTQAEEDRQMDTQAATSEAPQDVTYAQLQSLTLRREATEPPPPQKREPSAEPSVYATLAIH

T12 sequence (receptor, as listed by the source limits assumed): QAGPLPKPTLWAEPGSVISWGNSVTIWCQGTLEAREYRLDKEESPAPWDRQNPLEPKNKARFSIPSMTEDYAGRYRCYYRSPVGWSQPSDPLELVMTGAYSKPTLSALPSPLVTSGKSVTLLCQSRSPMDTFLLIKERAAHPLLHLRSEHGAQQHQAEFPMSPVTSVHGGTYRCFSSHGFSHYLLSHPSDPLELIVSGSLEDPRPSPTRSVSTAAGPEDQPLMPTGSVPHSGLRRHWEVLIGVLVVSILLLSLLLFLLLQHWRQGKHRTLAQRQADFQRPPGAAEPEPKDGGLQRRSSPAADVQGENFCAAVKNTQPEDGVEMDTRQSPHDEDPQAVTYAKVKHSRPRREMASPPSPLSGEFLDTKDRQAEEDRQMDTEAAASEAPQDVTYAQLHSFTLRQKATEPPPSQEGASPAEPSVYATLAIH
T5 sequence (O75019 17-489): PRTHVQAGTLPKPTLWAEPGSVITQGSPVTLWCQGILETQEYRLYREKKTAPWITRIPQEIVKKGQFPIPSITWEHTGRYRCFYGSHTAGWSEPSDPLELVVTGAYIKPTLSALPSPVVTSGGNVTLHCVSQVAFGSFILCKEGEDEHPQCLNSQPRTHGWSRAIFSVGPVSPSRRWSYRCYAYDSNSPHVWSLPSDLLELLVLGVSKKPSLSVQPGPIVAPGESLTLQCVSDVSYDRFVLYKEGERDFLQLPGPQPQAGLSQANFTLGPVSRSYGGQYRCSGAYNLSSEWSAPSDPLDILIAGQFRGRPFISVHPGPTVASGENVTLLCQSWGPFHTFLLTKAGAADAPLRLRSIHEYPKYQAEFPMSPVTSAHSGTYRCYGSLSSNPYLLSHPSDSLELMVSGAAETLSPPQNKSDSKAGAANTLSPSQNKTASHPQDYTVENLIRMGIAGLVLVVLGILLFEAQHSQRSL
T2 sequence (Q8N423 22-597): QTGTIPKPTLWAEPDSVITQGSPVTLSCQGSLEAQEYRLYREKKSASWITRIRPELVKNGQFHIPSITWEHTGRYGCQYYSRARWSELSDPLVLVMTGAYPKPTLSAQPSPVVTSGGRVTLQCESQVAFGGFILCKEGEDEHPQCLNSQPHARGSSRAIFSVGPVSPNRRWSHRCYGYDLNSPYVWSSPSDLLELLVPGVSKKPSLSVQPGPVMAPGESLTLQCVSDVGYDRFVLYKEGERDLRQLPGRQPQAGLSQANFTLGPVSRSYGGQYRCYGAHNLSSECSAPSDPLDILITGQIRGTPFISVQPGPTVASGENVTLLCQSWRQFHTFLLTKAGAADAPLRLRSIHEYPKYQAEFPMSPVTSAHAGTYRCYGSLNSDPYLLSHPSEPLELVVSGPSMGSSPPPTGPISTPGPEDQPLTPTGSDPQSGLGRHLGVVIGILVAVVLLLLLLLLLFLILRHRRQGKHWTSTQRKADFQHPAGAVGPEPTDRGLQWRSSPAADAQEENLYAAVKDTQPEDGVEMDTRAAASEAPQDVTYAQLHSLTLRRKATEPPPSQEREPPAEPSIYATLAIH
T3 sequence (O75022 24-631 limits assumed): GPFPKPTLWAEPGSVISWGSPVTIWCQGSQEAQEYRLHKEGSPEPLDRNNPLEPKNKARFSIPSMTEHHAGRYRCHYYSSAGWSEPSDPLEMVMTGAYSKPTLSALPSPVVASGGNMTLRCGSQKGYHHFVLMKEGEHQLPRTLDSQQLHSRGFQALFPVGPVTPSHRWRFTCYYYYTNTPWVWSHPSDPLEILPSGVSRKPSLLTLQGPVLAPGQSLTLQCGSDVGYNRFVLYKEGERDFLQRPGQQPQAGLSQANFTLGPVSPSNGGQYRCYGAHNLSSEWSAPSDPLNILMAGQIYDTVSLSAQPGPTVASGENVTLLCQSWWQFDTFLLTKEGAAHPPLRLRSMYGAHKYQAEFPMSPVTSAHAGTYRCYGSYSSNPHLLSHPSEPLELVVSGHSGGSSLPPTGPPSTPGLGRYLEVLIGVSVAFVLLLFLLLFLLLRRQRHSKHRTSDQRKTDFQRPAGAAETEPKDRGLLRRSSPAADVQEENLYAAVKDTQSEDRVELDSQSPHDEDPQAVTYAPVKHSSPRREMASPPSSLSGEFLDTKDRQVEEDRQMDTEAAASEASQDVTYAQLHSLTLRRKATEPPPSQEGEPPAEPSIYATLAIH
T8 sequence (A6NI73 42-299): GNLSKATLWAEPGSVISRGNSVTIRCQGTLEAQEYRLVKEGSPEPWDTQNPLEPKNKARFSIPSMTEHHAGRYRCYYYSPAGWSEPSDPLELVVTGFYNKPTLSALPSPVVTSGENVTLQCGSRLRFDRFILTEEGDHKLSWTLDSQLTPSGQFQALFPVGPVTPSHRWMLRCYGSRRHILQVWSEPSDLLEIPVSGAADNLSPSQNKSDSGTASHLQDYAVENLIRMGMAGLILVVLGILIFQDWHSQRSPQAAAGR
T6 sequence (Q8N149 24-483): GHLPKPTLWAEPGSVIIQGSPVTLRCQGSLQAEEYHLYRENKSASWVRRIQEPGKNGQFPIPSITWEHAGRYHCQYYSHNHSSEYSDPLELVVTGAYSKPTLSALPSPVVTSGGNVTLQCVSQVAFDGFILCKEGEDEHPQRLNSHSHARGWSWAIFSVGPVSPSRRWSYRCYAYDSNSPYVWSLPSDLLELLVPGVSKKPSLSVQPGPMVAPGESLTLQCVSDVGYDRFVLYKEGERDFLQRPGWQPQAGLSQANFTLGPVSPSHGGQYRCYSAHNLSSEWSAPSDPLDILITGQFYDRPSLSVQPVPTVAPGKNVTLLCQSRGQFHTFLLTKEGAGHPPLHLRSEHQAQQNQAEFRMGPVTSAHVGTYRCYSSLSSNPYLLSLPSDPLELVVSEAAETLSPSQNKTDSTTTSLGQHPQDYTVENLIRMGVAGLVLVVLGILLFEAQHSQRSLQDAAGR
T4 sequence (O75023 24-590 limits assumed): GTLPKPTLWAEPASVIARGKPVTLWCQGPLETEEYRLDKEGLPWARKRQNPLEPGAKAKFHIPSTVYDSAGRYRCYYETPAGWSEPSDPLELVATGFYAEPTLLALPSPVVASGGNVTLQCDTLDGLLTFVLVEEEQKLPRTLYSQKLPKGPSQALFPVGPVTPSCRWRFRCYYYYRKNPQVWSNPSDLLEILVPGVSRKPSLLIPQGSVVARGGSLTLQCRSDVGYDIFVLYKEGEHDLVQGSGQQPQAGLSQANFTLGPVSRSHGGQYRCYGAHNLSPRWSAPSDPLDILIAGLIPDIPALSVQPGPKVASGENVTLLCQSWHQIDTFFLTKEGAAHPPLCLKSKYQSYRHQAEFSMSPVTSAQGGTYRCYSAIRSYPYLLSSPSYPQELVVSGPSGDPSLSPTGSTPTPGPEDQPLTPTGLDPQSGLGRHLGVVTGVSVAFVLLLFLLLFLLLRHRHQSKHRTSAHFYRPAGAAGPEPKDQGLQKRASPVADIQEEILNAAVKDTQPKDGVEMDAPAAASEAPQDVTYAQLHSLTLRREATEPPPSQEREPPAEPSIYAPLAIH
T1 sequence (A0A2K5VIP6 entry or part of it): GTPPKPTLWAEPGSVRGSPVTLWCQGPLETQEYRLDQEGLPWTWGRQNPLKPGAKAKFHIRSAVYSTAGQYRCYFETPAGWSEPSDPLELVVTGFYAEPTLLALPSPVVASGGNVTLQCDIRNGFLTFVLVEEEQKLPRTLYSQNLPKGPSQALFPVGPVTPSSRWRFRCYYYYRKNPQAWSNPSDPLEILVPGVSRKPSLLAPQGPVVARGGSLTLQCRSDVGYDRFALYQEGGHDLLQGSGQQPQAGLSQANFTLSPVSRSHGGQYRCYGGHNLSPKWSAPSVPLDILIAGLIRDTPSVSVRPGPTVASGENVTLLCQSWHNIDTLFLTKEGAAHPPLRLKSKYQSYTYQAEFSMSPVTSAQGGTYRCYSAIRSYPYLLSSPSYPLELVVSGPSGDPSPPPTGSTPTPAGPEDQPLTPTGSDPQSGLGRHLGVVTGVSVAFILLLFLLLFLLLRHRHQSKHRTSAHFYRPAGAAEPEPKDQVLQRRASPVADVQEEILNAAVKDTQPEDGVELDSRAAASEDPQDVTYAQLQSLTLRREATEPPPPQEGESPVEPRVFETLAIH
T7 sequence (P59901 24-499): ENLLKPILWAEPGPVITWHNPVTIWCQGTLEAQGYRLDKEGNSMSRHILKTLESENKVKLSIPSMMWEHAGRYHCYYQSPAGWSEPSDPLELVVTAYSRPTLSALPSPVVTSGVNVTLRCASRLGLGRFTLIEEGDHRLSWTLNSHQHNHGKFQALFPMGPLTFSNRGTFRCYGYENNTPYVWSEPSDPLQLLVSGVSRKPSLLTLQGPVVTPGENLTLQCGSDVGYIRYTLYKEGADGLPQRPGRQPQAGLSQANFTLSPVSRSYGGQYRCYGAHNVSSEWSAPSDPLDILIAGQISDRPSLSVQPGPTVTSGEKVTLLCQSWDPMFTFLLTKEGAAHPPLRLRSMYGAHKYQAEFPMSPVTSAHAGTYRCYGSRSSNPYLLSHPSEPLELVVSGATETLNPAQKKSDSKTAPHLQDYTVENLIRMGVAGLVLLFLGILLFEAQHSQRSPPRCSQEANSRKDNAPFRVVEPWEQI
T9 sequence (Q6PI73 24-447 limits assumed): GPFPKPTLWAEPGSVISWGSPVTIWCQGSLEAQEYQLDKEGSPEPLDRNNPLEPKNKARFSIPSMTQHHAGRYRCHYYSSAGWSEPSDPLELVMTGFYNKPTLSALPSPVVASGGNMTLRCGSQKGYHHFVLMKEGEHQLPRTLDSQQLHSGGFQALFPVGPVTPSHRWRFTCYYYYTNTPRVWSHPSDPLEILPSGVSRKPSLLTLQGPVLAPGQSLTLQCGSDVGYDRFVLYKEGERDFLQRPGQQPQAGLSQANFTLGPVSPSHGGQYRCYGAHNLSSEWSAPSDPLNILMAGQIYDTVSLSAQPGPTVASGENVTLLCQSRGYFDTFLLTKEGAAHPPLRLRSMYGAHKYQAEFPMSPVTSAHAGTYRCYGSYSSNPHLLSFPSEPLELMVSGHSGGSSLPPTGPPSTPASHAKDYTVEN

B1: anti-ILT3 antibody 53F10 (antibody, V domains shown)
VH: EVQVVESGGGLVKPGGSLKLSCAASGFTFSDYGMHWVRQAPEKGLEWVAYISTGIITVYYADTVKGRFTMSRDNAKNTLFLQMTSLRSEDTAIYYCARADGRGAMDYWGQGTSVIVSS
VL: DIQMTQTTSSLSASLGDRVTISCRASQDISNFLNWYQQKPDGTVTLLIYYTSRLHSGVPSRFSGSGSGTDYSLTISNLEQEDFATYFCQQGNTLPWTFGGGTKLEIK
notes: Mouse monoclonal antibody from hybridoma
binding result [1]: no binding (tested: log [Ab] about -7.2 M (about 6e-8 M))
binding result [2]: no binding (tested: log [Ab] about -7.2 M (about 6e-8 M))
binding result [3]: no binding (tested: log [Ab] about -7.2 M (about 6e-8 M))
binding result [4]: no binding (tested: log [Ab] about -7.2 M (about 6e-8 M))
binding result [5]: no binding (tested: log [Ab] about -7.2 M (about 6e-8 M))
binding result [6]: no binding (tested: log [Ab] about -7.2 M (about 6e-8 M))
binding result [7]: no binding (tested: log [Ab] about -7.2 M (about 6e-8 M))
binding result [8]: no binding (tested: log [Ab] about -7.2 M (about 6e-8 M))
binding result [9]: no binding (tested: log [Ab] about -7.2 M (about 6e-8 M))
Kd [10]: 0.24 nM
koff [10]: 8e-05 s⁻¹
kon [10]: 330000 M⁻¹ s⁻¹
Kd [11]: 9.4 nM
koff [11]: 0.0055 s⁻¹
kon [11]: 590000 M⁻¹ s⁻¹
EC50 (read off the curve) [12]: ~400 pM

B2: anti-ILT3 antibody ch5A7 (parental chimeric 5A7) (antibody, V domains shown)
VH: EVKLVESGGGLVKPGGSLKLSCAASGFTFSSYGMSWVRQTPEKRLEWVATISGGGSYTNYPDSVKGRLTISRDNAKKNLYLEMSSLRSEDTALYYCARREWRMTLYAMDYWGQGTSVTVSS
VL: NIVLTQSPASLAVSLGQRATISCRASESVDSYGNSFMHWYQQKPGQAPKLLIYLTSNLESGVPARFSGSGSRTDFTLTIDPVEADDAATYYCQQNNEDPFTFGSGTKLEIK
IC50 (read off the curve) [13]: ~10 pM
Kd [14]: 0.57 nM
koff [14]: 0.0017 s⁻¹
kon [14]: 2.9e+06 M⁻¹ s⁻¹
Kd [15]: 2.4 nM
koff [15]: 0.018 s⁻¹
kon [15]: 7.5e+06 M⁻¹ s⁻¹

B3: anti-ILT3 antibody 5A7 (antibody, V domains shown)
VH: EVKLVESGGGLVKPGGSLKLSCAASGFTFSSYGMSWVRQTPEKRLEWVATISGGGSYTNYPDSVKGRLTISRDNAKKNLYLEMSSLRSEDTALYYCARREWRMTLYAMDYWGQGTSVTVSS
VL: NIVLTQSPASLAVSLGQRATISCRASESVDSYGNSFMHWYQQKPGQAPKLLIYLTSNLESGVPARFSGSGSRTDFTLTIDPVEADDAATYYCQQNNEDPFTFGSGTKLEIK
notes: as for B1
binding result [1]: no binding (tested: log [Ab] about -7.2 M (about 6e-8 M))
binding result [2]: no binding (tested: log [Ab] about -7.2 M (about 6e-8 M))
binding result [3]: no binding (tested: log [Ab] about -7.2 M (about 6e-8 M))
binding result [4]: no binding (tested: log [Ab] about -7.2 M (about 6e-8 M))
binding result [5]: no binding (tested: log [Ab] about -7.2 M (about 6e-8 M))
binding result [6]: no binding (tested: log [Ab] about -7.2 M (about 6e-8 M))
binding result [7]: no binding (tested: log [Ab] about -7.2 M (about 6e-8 M))
binding result [8]: no binding (tested: log [Ab] about -7.2 M (about 6e-8 M))
binding result [9]: no binding (tested: log [Ab] about -7.2 M (about 6e-8 M))
Kd [10]: 0.028 nM
koff [10]: 0.00011 s⁻¹
kon [10]: 3.8e+06 M⁻¹ s⁻¹
Kd [11]: 0.66 nM
koff [11]: 0.0022 s⁻¹
kon [11]: 3.3e+06 M⁻¹ s⁻¹
EC50 (read off the curve) [12]: ~300 pM

B4: anti-ILT3 antibody 48A6 (antibody, V domains shown)
VH: EVQLVESGGDLMKPGGSLKLSCAASGFTFSSYGMSWVRQTPDKRLEWVATISSGGTYTFYPDSVKGRFTISRDNAKNTLYLQMSSLKSEDTAMYYCARRGWLLHYYAMDYWGQGTSVTVSS
VL: NIVLTQSPASLAVSLGQRATISCRPSESVDSFGNSFMHWFQQKPGQPPKLLIYLSSKLESGVPARFSGSGSRTDFTLTIDPVEADDAATYYCQQHNEDPFTFGSGTKLEIK
notes: as for B1
binding result [1]: no binding (tested: log [Ab] about -7.2 M (about 6e-8 M))
binding result [2]: no binding (tested: log [Ab] about -7.2 M (about 6e-8 M))
binding result [3]: binds
binding result [4]: no binding (tested: log [Ab] about -7.2 M (about 6e-8 M))
binding result [5]: no binding (tested: log [Ab] about -7.2 M (about 6e-8 M))
binding result [6]: no binding (tested: log [Ab] about -7.2 M (about 6e-8 M))
binding result [7]: no binding (tested: log [Ab] about -7.2 M (about 6e-8 M))
binding result [8]: no binding (tested: log [Ab] about -7.2 M (about 6e-8 M))
binding result [9]: no binding (tested: log [Ab] about -7.2 M (about 6e-8 M))
Kd [10]: < 0.1 nM
koff [10]: 1.8e-07 s⁻¹
kon [10]: 7e+06 M⁻¹ s⁻¹
Kd [11]: 1.7 nM
koff [11]: 0.024 s⁻¹
kon [11]: 1.4e+07 M⁻¹ s⁻¹
EC50 (read off the curve) [12]: ~200 pM

B5: anti-ILT3 antibody Hz5A7.v5 (antibody, human IgG1, kappa, N297G, V domains shown)
VH: EVQLVESGGGLVQPGGSLRLSCAASGFTFSSYGMSWVRQAPGKGLEWVATISGGGSYTNYPDSVKGRFTISRDNAKNSLYLQMNSLRAEDTAVYYCARREWRYTLYAMDYWGQGTTVTVSS
VL: DIQLTQSPSFLSASVGDRVTITCRASESVESYGSSFMHWYQQKPGKAPKLLIYLTSNLESGVPSRFSGSGSGTEFTLTISSLQPEDFATYYCQQNNEDPFTFGQGTKLEIKR
notes: Humanized 5A7 variant
EC50 (read off the curve) [16]: ~200 pM
Kd [14]: 0.28 nM
koff [14]: 0.00081 s⁻¹
kon [14]: 2.8e+06 M⁻¹ s⁻¹
Kd [15]: 0.7 nM
koff [15]: 0.0071 s⁻¹
kon [15]: 1.1e+07 M⁻¹ s⁻¹
